The values that follow come from publication PMC3928670.

The Kd is the constant that tells how readily two partners part at equilibrium.

The target of experiment [1] is BcerB, TOMM dehydrogenase (B-protein) from Bacillus cereus 172560W (Bacillus cereus 172560W). The experiment in a line: fluorescence polarisation. A general note: Fluorescence polarisation rises when a labelled molecule tumbles more slowly, as on binding a larger partner.
Experiment [2] concerns the target McbB/D (Escherichia coli) (UniProt P23184). The note with it: cited from earlier work.
Sequence of UniProt P23184 (P23184 whole entry, chain 1 of 2): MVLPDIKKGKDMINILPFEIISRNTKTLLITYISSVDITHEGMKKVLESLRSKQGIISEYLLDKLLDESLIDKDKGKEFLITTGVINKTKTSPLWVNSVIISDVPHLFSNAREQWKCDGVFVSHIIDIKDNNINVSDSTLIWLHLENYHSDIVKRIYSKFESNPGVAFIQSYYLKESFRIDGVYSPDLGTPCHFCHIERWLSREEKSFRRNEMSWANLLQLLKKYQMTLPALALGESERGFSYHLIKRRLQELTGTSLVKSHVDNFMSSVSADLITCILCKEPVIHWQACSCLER
Sequence of UniProt P23184 (P23186 whole entry, chain 2 of 2, further chain): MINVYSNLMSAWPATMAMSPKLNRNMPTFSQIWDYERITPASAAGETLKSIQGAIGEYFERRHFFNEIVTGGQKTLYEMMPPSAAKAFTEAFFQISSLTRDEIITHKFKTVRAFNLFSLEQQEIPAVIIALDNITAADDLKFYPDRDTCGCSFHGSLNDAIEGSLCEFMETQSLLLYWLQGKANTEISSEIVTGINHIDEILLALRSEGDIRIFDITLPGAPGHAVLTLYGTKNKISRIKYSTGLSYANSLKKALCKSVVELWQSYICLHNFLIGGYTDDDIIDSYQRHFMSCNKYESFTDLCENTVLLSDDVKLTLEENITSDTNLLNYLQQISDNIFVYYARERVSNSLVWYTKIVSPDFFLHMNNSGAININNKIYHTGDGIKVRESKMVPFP

In experiment [1], “Balh cyclodehydratase (BalhC/D) from Bacillus sp. Al Hakam (complex)” registered an equilibrium dissociation constant (Kd) of 1700 nM.
On to McbC (from UniProt P23185), for which the Kd in experiment [2] was 1800 nM.
